“And” between values parts separate entries of the source, which are not always exact repeats. Equal entries are not always repeated.

These results are taken from patent US20210071139A1.

Sequence of Tmem160 (Q9D938 97-188): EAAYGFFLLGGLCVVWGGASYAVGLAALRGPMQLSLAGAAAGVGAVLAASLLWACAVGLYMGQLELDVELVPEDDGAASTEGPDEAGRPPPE

For one test, the target named is TOX (UniProt Q66JW3). Nature of the test: anti-TOX IP from EL4 nuclear extract, LC-MS/MS, MiST vs IgG control.
Sequence of TOX (Q66JW3 whole entry): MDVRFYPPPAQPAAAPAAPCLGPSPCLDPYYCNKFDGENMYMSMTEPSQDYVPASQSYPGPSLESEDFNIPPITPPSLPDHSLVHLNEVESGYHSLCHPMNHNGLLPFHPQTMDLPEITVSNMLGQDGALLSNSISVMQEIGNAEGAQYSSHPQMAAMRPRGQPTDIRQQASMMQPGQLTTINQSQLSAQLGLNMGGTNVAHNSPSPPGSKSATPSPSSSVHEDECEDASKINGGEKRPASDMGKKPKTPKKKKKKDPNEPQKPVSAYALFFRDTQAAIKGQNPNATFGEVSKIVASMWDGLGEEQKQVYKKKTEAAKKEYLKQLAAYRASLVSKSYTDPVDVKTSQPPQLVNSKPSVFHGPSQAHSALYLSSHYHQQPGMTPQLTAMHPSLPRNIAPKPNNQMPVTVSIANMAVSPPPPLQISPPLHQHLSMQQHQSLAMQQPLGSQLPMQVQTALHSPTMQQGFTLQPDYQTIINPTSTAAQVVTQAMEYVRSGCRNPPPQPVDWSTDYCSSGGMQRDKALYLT
In turn, Rrp1 (from UniProt P56183 1-494) returned an Abundance of 9e-06, a MiST Score of 0.753, a Reproducibility of 0.976 and a Specificity of 0.659.

As to Paxbp1 (from UniProt P58501 1-919), the Abundance came out at 1.83e-06, the MiST Score came to 0.75, the Reproducibility is 0.516 and the Specificity was found to be 0.862.

On to “Yme1l1 (from UniProt O88967 1-715) (enzyme)”, for which the Abundance was determined as 1.45e-05, the MiST Score was 0.75, the Reproducibility is 0.988 and the Specificity amounted to 0.65.

Regarding Raver1 (from UniProt Q9CW46 2-748), the Abundance stood at 4.89e-05, the MiST Score was determined as 0.762, the Reproducibility came to 0.839 and the Specificity amounted to 0.734.

Abcf2 (from UniProt Q99LE6 1-628) registered an Abundance of 2.89e-05, a MiST Score of 0.756, a Reproducibility of 0.917 and a Specificity of 0.69.

For Gatad2b (from UniProt Q8VHR5 1-594), the Abundance was determined as 1.65e-05, the MiST Score was found to be 0.752, the Reproducibility came out at 0.863 and the Specificity was determined as 0.708.

With “Top3b (from UniProt Q9Z321 1-862) (enzyme)”, the Abundance was found to be 8.1e-07, the MiST Score came out at 0.752, the Reproducibility is 0.541 and the Specificity was determined as 0.854.

The substance Ccdc86 (from UniProt Q9JJ89 1-426) had an Abundance of 3.82e-05, a MiST Score of 0.751, a Reproducibility of 0.964 and a Specificity of 0.662.

Regarding Cnot10 (from UniProt Q8BH15 2-744), the Abundance was determined as 8.51e-06, the MiST Score was 0.751, the Reproducibility was 0.946 and the Specificity was found to be 0.669.

For Ap2a1 (from UniProt P17426 1-977), the Abundance worked out at 2.47e-06, the MiST Score turned out to be 0.754, the Reproducibility was 0.846 and the Specificity came to 0.719.

Substance Eif3a (from UniProt P23116 1-1344) returned an Abundance of 1.17e-05, a MiST Score of 0.764, a Reproducibility of 0.795 and a Specificity of 0.757.

Take Abcf1 (from UniProt Q6P542 1-837): the Abundance came out at 1.12e-05, the MiST Score was 0.76, the Reproducibility came to 0.747 and the Specificity was 0.773.

Consider Rbm25 (from UniProt B2RY56 1-838), for which the Abundance amounted to 9.24e-06, the MiST Score came to 0.755, the Reproducibility was 0.601 and the Specificity is 0.831.

For Pnn (from UniProt O35691 2-725), the Abundance worked out at 7.35e-05, the MiST Score was 0.762, the Reproducibility was determined as 0.681 and the Specificity amounted to 0.805.

On to Thoc6 (from UniProt Q5U4D9 1-341), for which the Abundance was 3.97e-05, the MiST Score stood at 0.76, the Reproducibility turned out to be 0.994 and the Specificity came out at 0.661.

Regarding Pop1, the Abundance is 2.18e-06, the MiST Score was found to be 0.754, the Reproducibility is 0.906 and the Specificity was found to be 0.693.

Substance Pabpn1 (from UniProt Q8CCS6 2-302) had an Abundance of 8.22e-05, a MiST Score of 0.759, a Reproducibility of 0.992 and a Specificity of 0.66.

For the substance Actr5 (from UniProt Q80US4 1-605), the Abundance worked out at 9e-06, the MiST Score came out at 0.753, the Reproducibility was found to be 0.979 and the Specificity was 0.658.

Substance Bclaf1 (from UniProt Q8K019 1-919) yielded an Abundance of 6.73e-05, a MiST Score of 0.756, a Reproducibility of 0.872 and a Specificity of 0.71.

In a further test the target is TOX (UniProt Q66JW3). Nature of the test: TOX co-IP from EL4 nuclear extract, LC-MS/MS, MiST.
For Nob1 (from UniProt Q8BW10 1-403), the Abundance stood at 2.4e-05, the MiST Score was found to be 0.84, the Reproducibility stood at 0.955 and the Specificity came out at 0.796.

In the case of Orc1 (from UniProt Q9Z1N2 1-840), the Abundance stood at 1.58e-06, the MiST Score amounted to 0.843, the Reproducibility turned out to be 0.866 and the Specificity is 0.839.

For the substance Ccnk (from UniProt O88874 1-554), the Abundance was determined as 1.18e-05, the MiST Score came to 0.846, the Reproducibility was found to be 0.975 and the Specificity is 0.795.

For the substance Nop14 (from UniProt Q8R3N1 1-860), the Abundance amounted to 1.27e-06, the MiST Score amounted to 0.84, the Reproducibility was 0.501 and the Specificity stood at 1.

For the substance Cnot1 (from UniProt Q6ZQ08 1-2375), the Abundance amounted to 5.57e-07, the MiST Score is 0.85, the Reproducibility came out at 0.931 and the Specificity was found to be 0.821.

Lsg1 (from UniProt Q3UM18 1-644): the Abundance came to 2.9e-06, the MiST Score is 0.837, the Reproducibility is 0.886 and the Specificity came out at 0.822.

In turn, Trrap (from UniProt Q80YV3 1-2565) returned an Abundance of 9.36e-08, a MiST Score of 0.847, a Reproducibility of 0.524 and a Specificity of 1.

Turning to Tmem160, the Abundance was determined as 3.49e-05, the MiST Score is 0.846, the Reproducibility was 0.94 and the Specificity turned out to be 0.812.

In turn, Gnl2 (from UniProt Q99LH1 1-728) displayed an Abundance of 7.98e-06, a MiST Score of 0.843, a Reproducibility of 0.894 and a Specificity of 0.827.

Regarding Ap3m1 (from UniProt Q9JKC8 1-418), the Abundance came out at 1.64e-05, the MiST Score was 0.829, the Reproducibility is 0.982 and the Specificity came to 0.767.

In the case of Sugp1 (from UniProt Q8CH02 1-643), the Abundance was 7.71e-06, the MiST Score came out at 0.832, the Reproducibility was 0.906 and the Specificity was found to be 0.807.

Regarding Mcm5 (from UniProt P49718 2-734), the Abundance came to 4.18e-06, the MiST Score came to 0.85, the Reproducibility was determined as 0.757 and the Specificity was 0.9.

With Zcchc8 (from UniProt Q9CYA6 2-709), the Abundance amounted to 2.87e-06, the MiST Score was 0.834, the Reproducibility came to 0.483 and the Specificity is 1.

Regarding Copg1 (from UniProt Q9QZE5 1-874), the Abundance stood at 3.36e-06, the MiST Score stood at 0.844, the Reproducibility worked out at 0.514 and the Specificity turned out to be 1.

For the substance Nop2 (from UniProt Q922K7 1-793), the Abundance turned out to be 8.3e-05, the MiST Score amounted to 0.844, the Reproducibility came to 0.981 and the Specificity worked out at 0.789.

Take Dnajb6 (from UniProt O54946 1-365): the Abundance stood at 2.48e-05, the MiST Score came to 0.837, the Reproducibility was found to be 0.944 and the Specificity was determined as 0.796.

Sorbs1 (from UniProt Q62417 1-1290) returned an Abundance of 1.52e-05, a MiST Score of 0.829, a Reproducibility of 0.997 and a Specificity of 0.76.

Turning to Mrpl3 (from UniProt Q99N95 41-348), the Abundance is 7.04e-05, the MiST Score is 0.857, the Reproducibility worked out at 0.555 and the Specificity is 1.

In turn, Orc3 (from UniProt Q9JK30 1-715) displayed an Abundance of 7.41e-07, a MiST Score of 0.848, a Reproducibility of 0.528 and a Specificity of 1.

In the case of Mark2 (from UniProt Q05512 1-776), the Abundance turned out to be 2.81e-06, the MiST Score came to 0.842, the Reproducibility is 0.891 and the Specificity turned out to be 0.826.

Cpt1a (from UniProt P97742 2-773) gave an Abundance of 7.71e-07, a MiST Score of 0.847, a Reproducibility of 0.522 and a Specificity of 1.

As to Atxn2 (from UniProt O70305 1-1285), the Abundance came out at 2.51e-06, the MiST Score is 0.831, the Reproducibility was 0.831 and the Specificity amounted to 0.838.

On to Rrbp1 (from UniProt Q99PL5 1-1605), for which the Abundance was 1.36e-06, the MiST Score amounted to 0.834, the Reproducibility was found to be 0.675 and the Specificity was 0.913.

Arhgef2 (from UniProt Q60875 1-985) came in with an Abundance of 1.33e-05, a MiST Score of 0.847, a Reproducibility of 0.943 and a Specificity of 0.811.

“Gm20517; Med20 (from UniProt Q9R0X0 1-212)” registered an Abundance of 2.2e-05, a MiST Score of 0.831, a Reproducibility of 0.472 and a Specificity of 1.

As for Sptbn1 (from UniProt Q62261 2-2363), the Abundance is 1.19e-05 and 1.09e-05; the MiST Score was found to be 0.84; the Reproducibility worked out at 0.996; the Specificity was 0.777.

As for Cdc16 (from UniProt Q8R349 1-620), the Abundance turned out to be 4.84e-06, the MiST Score came out at 0.847, the Reproducibility was determined as 0.524 and the Specificity amounted to 1.

In turn, Rbm28 (from UniProt Q8CGC6 2-750) displayed an Abundance of 8.77e-06, a MiST Score of 0.855, a Reproducibility of 0.958 and a Specificity of 0.815.
